This note sets out measurements from paper PMC12858062 (2026).

One may read the koff as a measure of how fast the partners let go of each other. High values mean a short-lived complex, low ones a long-lived complex.

First the molecules themselves.
B1: Anti-Pfs48/45 monoclonal antibody TB31F (humanised version of 85RF45.1) (antibody, V domains shown)
VH: EVQLVQSGGGLVQPGGSLRLSCAASGFTFNNYWMSWVRQAPGKGLEWVSSISNIGGTIYYPDSVKGRFTISRDNSKNTLYLQMNSLRAEDTAVYYCTRDLRMSDYFDYWGQGTMVTVSS
VL: NFMLTQPHSVSESPGKTVTISCTRSTGNIGSNYVSWYQQRPGSSPTTVIYRDDQRPSGVPDRFSGSIDRSSNSASLTISGLKTEDEADYYCHSYSTGMYIFGGGTKLTVL
B2: A4-Fc (anti-Pfs48/45 nanobody A4 fused to hinge and Fc of human IgG1) (Fc fusion)
chain: QVQLQESGGGLVQPGGSLRLSCAASGFTFSSYWMYWVRETPGKGLEWVSVINPGGRITIYTDSVKGRFTVSRDNAKNTVYLQMNSLKPEDTAVYFCAADLEYRAQLYAYWGQGTQVTVSS
B3: C3-Fc (anti-Pfs48/45 nanobody C3 fused to hinge and Fc of human IgG1) (Fc fusion)
chain: QVQLQESGGGSVQPGGSLRLSCAASGFTFSSYWMYWVRQAPEKGLEWVSVINPGGRITIYTDSVKGRFAVSRDNAKNTVYLQLNSLKPEDTAVYYCAASRTYSNSYSPSDYDYWGQGTQVTVSS
B4: B2-Fc (anti-Pfs48/45 nanobody B2 fused to hinge and Fc of human IgG1) (Fc fusion)
chain: QVQLQESGGGLVQAGGSLRLSCAASGRTFSKYAMAWFRQAPGKEREFVAAISGAGGATVHAAPVKGRFTISRDNAKNMGYLQMNSLKPEDTAVYYCAQTGSTGWPAGRTYTYDYWGQGTQVTVSS

In this experiment the target is Stabilised Pfs48/45 D3 (D3.mAgE1), PNGase F-deglycosylated, with C-terminal hexa-histidine tag and AviTag (P. falciparum). Nature of the experiment: BLI. (Biolayer interferometry detects binding as a change in optical thickness at a sensor tip.)
With B1, the koff was determined as 0.00239 s⁻¹.

As for B2, the koff stood at 0.00851 s⁻¹.

For the molecule B3, the koff is 0.0106 s⁻¹.

The molecule B4 showed a koff of 0.00476 s⁻¹.
